# Assay results reported in PMC5142333, “The topology, structure and PE interaction of LITAF underpin a Charcot-Marie-Tooth disease type 1C” (BMC Biology, 2016).
# B1: wild type LITAF (full length, recombinant) (natural protein, human, UniProt Q99732 1-161, looked up)
# chain: MSVPGPYQAATGPSSAPSAPPSYEETVAVNSYYPTPPAPMPGPTTGLVTGPDGKGMNPPSYYTQPAPIPNNNPITVQTVYVQHPITFLDRPIQMCCPSCNKMIVSQLSYNAGALTWLSCGSLCLLGCIAGCCFIPFCVDALQDVDHYCPNCRALLGTYKRL
# notes: Lipopolysaccharide-induced tumour necrosis factor-alpha factor (LITAF, SIMPLE), human, full length wild type; Kept soluble with detergent (1% DDM or 1% FC12 at lysis, 0.04% DDM or 0.125% FC12 afterwards); also called LITAF WT; full length wild type LITAF protein; source: C43(DE3) BL21 E. coli, purified in detergent (Ni-NTA, ULP1 cleavage, SEC; DDM or FC12); not shown: His6, N-terminal, cleaved; …
# Target: the molecule itself
# Assay: SEC; Superdex 200 10/300 GL; recombinant LITAF constructs; wild type LITAF kept in detergent
protein,measurement,value
B1,binding result,binds
